The text below walks through data of US11278600B2, “Human alpha-galactosidase variants” (Codexis, Inc., priority 2014, dated 2022).

Holding throughout (format): biochemical
A short description of data set [1]: HTP-analysis of yeast culture supernatants, no challenge (MUGal hydrolysis). To be noted: activity of the variant/activity of WT GLA (SEQ ID NO: 5), yeast supernatant. The protocol: (§1) Yeast (INVSc1) cells transformed with vectors expressing GLA and GLA variants using the lithium acetate method were selected on SD-Ura agar plates. After 72 h incubation at 30° C. colonies were placed into the wells of Axygen® 1.1 ml 96-well deep well plates filled with 200 μl/well SD-Ura broth (2 g/L SD-Ura, 6.8 g/L yeast nitrogen base without amino acids [Sigma Aldrich]), 3.06 g/L sodium dihydrogen phosphate, 0.804 g/L disodium hydrogen phosphate, pH 6.0 supplemented with 6% glucose. The cells were allowed to grow for 20-24 hours in a Kuhner shaker (250 rpm, 30° C., and 85% relative humidity). Overnight culture samples (20 μL) were transferred into Corning Costar® 96-well deep plates filled with 380 µL of SD-ura broth supplemented with 2% glucose. The plates were incubated for 66-84 h in a Kuhner shaker (250 rpm, 30° C., and 85% relative humidity). The cells were then pelleted (4000 rpm×20 min), and the supernatants isolated and stored at 4° C. prior to analysis.
GLA variant activity was determined by measuring the hydrolysis of 4-methylumbelliferyl α-D-galactopyranoside (MUGal). For this assay, 5-50 μL, of yeast culture supernatant produced as described above, was mixed with 0-45 μL, of McIlvaine Buffer (McIlvaine, J. Biol. Chem., 49:183-186 [1921]), pH 4.8 and 50 μL of 2 mM MUGal in 50 mM citrate, 200 mM KCl, pH 4.6 in a 96-well, black, opaque bottom plate. The reactions were mixed briefly and incubated at 37° C. for 30-180 minutes, prior to quenching with 100 μL, of 1 M sodium carbonate. Hydrolysis was analyzed using a SpectraMax® M2 microplate reader monitoring fluorescence (Ex. 355 nm, Em. 448 nm).

Data set [2] in a line: HTP-analysis of supernatants pretreated with acid (MUGal hydrolysis). To be noted: challenge at pH 4.3; activity of the variant/activity of WT GLA (SEQ ID NO: 5); yeast supernatant. The protocol: as §1
GLA variants were challenged with acidic buffer to simulate the extreme pHs that the variants may encounter in lysosomes. First, 50 μL of yeast culture supernatant and 50 uL of McIlvaine buffer (pH 3.3-4.3) were added to the wells of a 96-well round bottom plate. The plates were sealed with a PlateLoc Thermal Microplate Sealer (Agilent) and incubated at 37° C. for 1-3 h. For the assay, 10-50 uL of acid-pH-challenged sample was mixed with 0-40 μL, of McIlvaine buffer pH 4.8, 25 μL, of 1 M citrate buffer pH 4.3 and 25 μL, of 4 mM MUGal in McIlvaine buffer pH 4.8. The reactions were mixed briefly and incubated at 37° C. for 30-180 minutes, prior to quenching with 100 μL, of 1 M sodium carbonate. Hydrolysis was analyzed using a SpectraMax® M2 microplate reader monitoring fluorescence (Ex. 355 nm, Em. 448 nm).

A short description of data set [3]: HTP-analysis of supernatants pretreated with base (MUGal hydrolysis). To be noted: challenge at pH 7.0; activity of the variant/activity of WT GLA (SEQ ID NO: 5); yeast supernatant. The protocol: as §1
GLA variants were challenged with basic (neutral) buffer to simulate the pHs that the variants encounter in the blood following their administration to a patient. First, 50 μL of yeast culture supernatant and 50 uL of McIlvaine buffer (pH 7.0-8.2) or 200 mM sodium bicarbonate (pH 9.1-9.7) were added to the wells of a 96-well round bottom plate. The plates were sealed and incubated at 37° C. for 1-18 h. For the assay, 10-50 μL of basic-pH-challenged sample was mixed with 0-40 μL, of McIlvaine buffer pH 4.8, 25 μL, of 1 M citrate buffer pH 4.3 and 25 μL, of 4 mM MUGal in McIlvaine buffer pH 4.8. The reactions were mixed briefly and incubated at 37° C. for 30-180 minutes, prior to quenching with 100 μL, of 1 M sodium carbonate. Hydrolysis was analyzed using a SpectraMax® M2 microplate reader monitoring fluorescence (Ex. 355 nm, Em. 448 nm).

B1: 20 (protein)
chain: LDNGLARTPTMGWLHWERFMCNLDCQEEPDSCISEKLFMEMAELMVSEGWKDAGYEYLCIDDCWMAPQRDSEGRLQADPQRFPHGIRQLANYVHSKGLKLGIYADVGNKTCAGFPGSFGYYDIDAQTFADWGVDLLKFDGCYCDSLENLADGYKHMSLALNRTGRSIVYSCEWPLYMWPFQKPNYTEIRQYCNHWRNFADIDDSWKSVKSILDWTSFNQERIVDVAGPGGWNDPDMLVIGNFGLSWDQQVTQMALWAIMAAPLFMSNDLRHISPQAKALLQDKDVIAINQDPLGKQGYRLRQGDNFEVWERPLSGLAWAVAMINRQEIGGPRSYTIAVASLGKGVACNPACFITQLLPVKRKLGFYEWTSRLKSHVNPTGTVLLQLENTMQMSLKDLLL
modifications: Synthetic Polypeptide sequence of Variant No. 20 of mature Human GLA
Regarding B1, the “Relative Activity of GLA Variants After No Challenge (NC)” value in data set [1] was “+ (+ = 0.5 to 1.5 relative activity over WT GLA (SEQ ID NO: 5))”. For the same molecule, the “Relative Activity of GLA Variants After Challenge at pH 4.3” value (“Relative Activity … at pH 4.3” below) in data set [2] is “+++ (+++ = >2.5 relative activity over WT GLA (SEQ ID NO: 5))”. The “Relative Activity of GLA Variants After Challenge at pH 7.0” value (“Relative Activity … at pH 7.0” below) in data set [3] is “++ (++ = >1.5 to 2.5 relative activity over WT GLA (SEQ ID NO: 5))”.

B2: 24 (protein)
chain: LDNGLARTPTMGWLHWERFMCNLDCQEEPDSCISEKLFMEMAELMVSEGWKDAGYEYLCIDDCWMAPQRDSEGRLQADPQRFPHGIRQLANYVHSKGLKLGIYADVGNKTCAGFPGSFGYYDIDAQTFADWGVDLLKFDGCYCDSLENLADGYKHMSLALNRTGRSIVYSCEWPLYMWPFQKPNYTEIRQYCNHWRNFADIDDSWKSIKSILDWTSFNQERIVDVAGPGGWNDPDMLVIGNFGLSWNQQVTQMALWAIMAAPLFMSNDLRHISPQAKALLQDKDVIAINQDPLGKQGYQLRQGDNFEVWERPLSGLAWAVAMINRQEIGGPRSYTIAVASLGKGVACNPACFITQLLPVKRKLGFYEWTSRLRSHVNPTGTVLLQLENTMQMSLKDLLL
modifications: Synthetic Polypeptide sequence of Variant No. 24 of mature Human GLA
Turning to B2, the “Relative Activity of GLA Variants After No Challenge (NC)” value in data set [1] is listed as “+ (+ = 0.5 to 1.5 relative activity over WT GLA (SEQ ID NO: 5))”. The “Relative Activity … at pH 4.3” value in data set [2] is given as “++ (++ = >1.5 to 2.5 relative activity over WT GLA (SEQ ID NO: 5))”. In data set [3], the “Relative Activity … at pH 7.0” value was “+ (+ = 0.5 to 1.5 relative activity over WT GLA (SEQ ID NO: 5))”.

B3: 22 (protein)
chain: LDNGLARTPTMGWLHWERFMCNLDCQEEPDSCISEKLFMEMAELMVSEGWKDAGYEYLCIDDCWMAPQRDSEGRLQADPQRFPHGIRQLANYVHSKGLKLGIYADVGNKTCAGFPGSFGYYDIDAQTFADWGVDLLKFDGCYCDSLENLADGYKHMSLALNRTGRSIVYSCEWPLYMWPFQKPNYTEIRQYCNHWRNFADIDDSWKSVKSILDWTSFNQERIVDVAGPGGWNDPDMLVIGNFGLSWNQQVTQMALWAIMAAPLFMSNDLRHISPQAKALLQDKDVIAINQDPLGKQGYRLRQGDNFEVWERPLSGLAWAVAMINRQEIGGPRSYTIAVASLGKGVACNPACFITQLLPVKRKLGFYEWTSRLRSHVNPTGTVLLQLENTMQMSLKDLLL
modifications: Synthetic Polypeptide sequence of Variant No. 22 of mature Human GLA
As for B3, in data set [1], the “Relative Activity of GLA Variants After No Challenge (NC)” value is on record as “+ (+ = 0.5 to 1.5 relative activity over WT GLA (SEQ ID NO: 5))”. In data set [2], the “Relative Activity … at pH 4.3” value was “+ (+ = 0.5 to 1.5 relative activity over WT GLA (SEQ ID NO: 5))”. In addition, the “Relative Activity … at pH 7.0” value in data set [3] was “+ (+ = 0.5 to 1.5 relative activity over WT GLA (SEQ ID NO: 5))”.

B4: 21 (protein)
chain: LDNGLARTPTMGWLHWERFMCNLDCQEEPDSCISEKLFMEMAELMVSEGWKDAGYEYLCIDDCWMAPQRDSEGRLQADPQRFPHGIRQLANYVHSKGLKLGIYADVGNKTCAGFPGSFGYYDIDAQTFADWGVDLLKFDGCYCDSLENLADGYKHMSLALNRTGRSIVYSCEWPLYMWPFQKPNYTEIRQYCNHWRNFADIDDSWKSVKSILDWTSFNQERIVDVAGPGGWNDPDMLVIGNFGLSWDQQVTQMALWAIMAAPLFMSNDLRHISPQAKALLQDKDVIAINQDPLGKQGYQLRQGDNFEVWERPLSGLAWAVAMINRQEIGGPRSYTIAVASLGKGVACNPACFITQLLPVKRKLGFYEWTSRLKSHVNPTGTVLLQLENTMQMSLKDLLL
modifications: Synthetic Polypeptide sequence of Variant No. 21 of mature Human GLA
As to B4, in data set [1], the “Relative Activity of GLA Variants After No Challenge (NC)” value is given as “+ (+ = 0.5 to 1.5 relative activity over WT GLA (SEQ ID NO: 5))”. Also, the “Relative Activity … at pH 4.3” value in data set [2] is “+++ (+++ = >2.5 relative activity over WT GLA (SEQ ID NO: 5))”. Besides, the “Relative Activity … at pH 7.0” value in data set [3] is “++ (++ = >1.5 to 2.5 relative activity over WT GLA (SEQ ID NO: 5))”.

B5: 25 (protein)
chain: LDNGLARTPTMGWLHWERFMCNLDCQEEPDSCISEQLFMEMAELMVSEGWKDAGYEYLCIDDCWMAPQRDSEGRLQADPQRFPHGIRQLANYVHSKGLKLGIYADVGNKTCAGFPGSFGYYDIDAQTFADWGVDLLKFDGCYCDSLENLADGYKHMSLALNRTGRSIVYSCEWPLYMWPFQKPNYTEIRQYCNHWRNFADIDDSWKSIKSILDWTSFNQERIVDVAGPGGWNDPDMLVIGNFGLSWNQQVTQMALWAIMAAPLFMSNDLRHISPQAKALLQDKDVIAINQDPLGKQGYQLRQGDNFEVWERPLSGLAWAVAMINRQEIGGPRSYTIAVASLGKGVACNPACFITQLLPVKRKLGFYEWTSRLRSHINPTGTVLLQLENTMQMSLKDLLL
modifications: Synthetic Polypeptide sequence of Variant No. 25 of mature Human GLA
Take B5: the “Relative Activity of GLA Variants After No Challenge (NC)” value in data set [1] is recorded as “+ (+ = 0.5 to 1.5 relative activity over WT GLA (SEQ ID NO: 5))”. Further, the “Relative Activity … at pH 4.3” value in data set [2] is listed as “+ (+ = 0.5 to 1.5 relative activity over WT GLA (SEQ ID NO: 5))”. For the same molecule, the “Relative Activity … at pH 7.0” value in data set [3] is “+ (+ = 0.5 to 1.5 relative activity over WT GLA (SEQ ID NO: 5))”.

B6: 23 (protein)
chain: LDNGLARTPTMGWLHWERFMCNLDCQEEPDSCISEKLFMEMAELMVSEGWKDAGYEYLCIDDCWMAPQRDSEGRLQADPQRFPHGIRQLANYVHSKGLKLGIYADVGNKTCAGFPGSFGYYDIDAQTFADWGVDLLKFDGCYCDSLENLADGYKHMSLALNRTGRSIVYSCEWPLYMWPFQKPNYTEIRQYCNHWRNFADIDDSWKSVKSILDWTSFNQERIVDVAGPGGWNDPDMLVIGNFGLSWNQQVTQMALWAIMAAPLFMSNDLRHISPQAKALLQDKDVIAINQDPLGKQGYQLRKGDNFEVWERPLSGLAWAVAMINRQEIGGPRSYTIAVASLGKGVACNPACFITQLLPVKRKLGFYEWTSRLKSHVNPTGTVLLQLENTMQMSLKDLLL
modifications: Synthetic Polypeptide sequence of Variant No. 23 of mature Human GLA
In the case of B6, in data set [1], the “Relative Activity of GLA Variants After No Challenge (NC)” value is “+ (+ = 0.5 to 1.5 relative activity over WT GLA (SEQ ID NO: 5))”. For the same molecule, in data set [2], the “Relative Activity … at pH 4.3” value is on record as “+++ (+++ = >2.5 relative activity over WT GLA (SEQ ID NO: 5))”. Further, in data set [3], the “Relative Activity … at pH 7.0” value is recorded as “++ (++ = >1.5 to 2.5 relative activity over WT GLA (SEQ ID NO: 5))”.
